The values below come from patent US20190185568A1 (FUSO PHARMACEUTICAL INDUSTRIES, published 2019).

In test [1] the target is T1, bovine PD-1-His (soluble bovine PD-1 extracellular region with 6xHis tag) (bovine).
T1 chain: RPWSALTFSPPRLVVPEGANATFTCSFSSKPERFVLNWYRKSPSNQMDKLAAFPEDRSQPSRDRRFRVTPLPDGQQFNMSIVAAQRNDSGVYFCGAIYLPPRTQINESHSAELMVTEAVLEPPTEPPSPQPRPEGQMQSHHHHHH
As to the kind of experiment: SPR (Biacore X100), bovine PD-1-His immobilized on CM5 chip, antibody as analyte, single kinetics, n=3. How it is done: The binding avidities to bovine PD-1 of rat anti-bovine PD-1 antibody 5D2 and rat-bovine chimeric anti-bovine PD-1 antibody ch5D2 were measured by surface plasmon resonance using a bimolecular interaction analyzer (Biacore X100). Briefly, bovine PD-1-His (described above) was immobilized on a CM5 sensor chip (GE Healthcare) as a ligand. Subsequently, rat anti-bovine PD-1 antibody 5D2 or rat-bovine chimeric anti-bovine PD-1 antibody ch5D2 was reacted as an analyte, followed by single kinetics analysis. The experiment was repeated 3 times under the same conditions. Binding constant (kd value) and dissociation constant (ka value) were determined in each experiment, and binding avidity (KD value) was obtained.
On the technique in general: In SPR one partner is held on a chip, and binding of the other changes the refractive index at the surface.

Test [2] has as its target T2, bovine FcγRI-His (soluble extracellular region with 6xHis tag) (bovine).
T2 construct: extracellular domain; also called boFcγRI-His; not shown: limits not st
Briefly: ELISA: antibody immobilized at 1.56 to 50 nM, bovine FcγRI-His added at 10 µg/ml, anti-polyhistidine detection [A]. How it is done: (§1) Subsequently, each well was washed with […] of 0.05% Tween 20-supplemented PBS (PBS-T) five times, followed by blocking with SuperBlock (PBS) Blocking Buffer (Thermo Fisher Scientific) at 37° C. for 30 min, Each well was washed again in the same manner. Then, bovine FcγRI-His, FcγRII-His, FcγRIII-His or Fcγ2R-His was added to each well at a final concentration of 10 μg/ml and reacted at 37° C. for 1 hr. After washing, anti-polyhistidine tag mouse monoclonal antibody (Abeam) was reacted at 37° C. for 30 min. Subsequently, each well was washed, and horseradish peroxidase-labeled anti-mouse IgG goat polyclonal antibody (MP Biomedicals) was reacted at 37° C. for 30 min. Each well was washed again, and then TMB One Component Substrate (Bethyl) was added for coloring. Thereafter, the enzyme reaction was terminated with 0.18 M dilute sulfuric acid, and absorbance (450 nm) was measured with Microplate Reader MTP-900 (Corona Electric), For every plate washing operation, Auto Plate Washer BIO WASHER 50 (DS Pharma Biomedical) was used.
For orientation: In an ELISA, binding on a coated surface is turned into a signal by an enzyme label.

Test [3] deals with T3, bovine FcγRII-His (soluble extracellular region with 6xHis tag) (bovine, UniProt Q28110 43-225).
T3 construct: extracellular domain; also called boFcγRII-His
T3 sequence: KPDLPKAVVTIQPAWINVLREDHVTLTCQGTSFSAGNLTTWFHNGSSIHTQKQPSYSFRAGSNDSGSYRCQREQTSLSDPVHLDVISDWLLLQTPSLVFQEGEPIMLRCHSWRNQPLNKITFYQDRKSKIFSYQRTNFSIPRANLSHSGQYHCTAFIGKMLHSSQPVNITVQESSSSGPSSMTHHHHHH
Briefly: ELISA: antibody immobilized at 1.56 to 50 nM, bovine FcγRII-His added at 10 µg/ml, anti-polyhistidine detection [B]. How it is done:
as §1

B1: rat anti-bovine PD-1 monoclonal antibody 5D2 (antibody, V domains shown)
VH: QVQLKETGPGLVQPTQTLSITCTVSGFSLTSYYIQWVRQTPGKGLEWMGFIRSGGSTEYNSEFKSRLSINRDTSKNQVFLKMNSLKTEDTGVYYCARTSSGYEGGFDYWGQGVMVTVSS
VL: DVVLTQTPVSLSVTLGDQASISCRSSQSLEYSDGYTYLEWYLQKPGQSPQLLIYGVSNRFSGVPDRFIGSGSGTDFTLKISRVEPEDLGVYYCFQATHDPDTFGAGTKLELK
notes: Rat monoclonal antibody from a hybridoma; Rat IgG2a (kappa) was used as its isotype control; also called rat anti-bovine PD-1 antibody 5D2
With B1, in test [1], the Kd worked out at 12.2 nM, the koff is 0.000215 s⁻¹ and the kon was 18400 M⁻¹ s⁻¹.

B2: rat-bovine chimeric anti-bovine PD-1 antibody ch5D2 having wild-type bovine IgG1 (IgG1 WT) (antibody)
heavy: QVQLKETGPGLVQPTQTLSITCTVSGFSLTSYYIQWVRQTPGKGLEWMGFIRSGGSTEYNSEFKSRLSINRDTSKNQVFLKMNSLKTEDTGVYYCARTSSGYEGGFDYWGQGVMVTVSSASTTAPKVYPLSSCCGDKSSSTVTLGCLVSSYMPEPVTVTWNSGALKSGVHTFPAVLQSSGLYSLSSMVTVPGSTSGQTFTCNVAHPASSTKVDKAVDPTCKPSPCDCCPPPELPGGPSVFIFPPKPKDTLTISGTPEVTCVVVDVGHDDPEVKFSWFVDDVEVNTATTKPREEQFNSTYRVVSALRIQHQDWTGGKEFKCKVHNEGLPAPIVRTISRTKGPAREPQVYVLAPPQEELSKSTVSLTCMVTSFYPDYIAVEWQRNGQPESEDKYGTTPPQLDADSSYFLYSKLRVDRNSWQEGDTYTCVVMHEALHNHYTQKSTSKSAGK
light: DVVLTQTPVSLSVTLGDQASISCRSSQSLEYSDGYTYLEWYLQKPGQSPQLLIYGVSNRFSGVPDRFIGSGSGTDFTLKISRVEPEDLGVYYCFQATHDPDTFGAGTKLELKQPKSPPSVTLFPPSTEELNGNKATLVCLISDFYPGSVTVVWKADGSTITRNVETTRASKQSNSKYAASSYLSLTSSDWKSKGSYSCEVTHEGSTVTKTVKPSECS
notes: also called ch5D2 IgG1 WT
As for B2, the “EC50 (read off the curve)” value in test [2] was ~9 nM. For the same molecule, the binding result in test [3] was “binds”.

B3: rat-bovine chimeric anti-bovine PD-1 antibody ch5D2 (mutated bovine IgG1, IgG1 ADCC-) (antibody)
heavy: QVQLKETGPGLVQPTQTLSITCTVSGFSLTSYYIQWVRQTPGKGLEWMGFIRSGGSTEYNSEFKSRLSINRDTSKNQVFLKMNSLKTEDTGVYYCARTSSGYEGGFDYWGQGVMVTVSSASTTAPKVYPLSSCCGDKSSSTVTLGCLVSSYMPEPVTVTWNSGALKSGVHTFPAVLQSSGLYSLSSMVTVPGSTSGQTFTCNVAHPASSTKVDKAVDPTCKPSPCDCCPPPPVAGPSVFIFPPKPKDTLTISGTPEVTCVVVDVGHDDPEVKFSWFVDDVEVNTATTKPREEQFNSTYRVVSALRIQHQDWTGGKEFKCKVHNEGLPSSIVRTISRTKGPAREPQVYVLAPPQEELSKSTVSLTCMVTSFYPDYIAVEWQRNGQPESEDKYGTTPPQLDADSSYFLYSKLRVDRNSWQEGDTYTCVVMHEALHNHYTQKSTSKSAGK
light: B2 light
notes: Rat 5D2 variable regions on bovine IgG1 (modified from GenBank X62916) and bovine Ig lambda (X62917); also called ch5D2 IgG1 ADCC-
Turning to B3, in test [1], the affinity, expressed as Kd, was 10.5 nM; the koff was 0.000216 s⁻¹; the kon stood at 20700 M⁻¹ s⁻¹. In addition, the binding result in test [3] is “no binding (tested: 50 nM)”.

By Kd is commonly meant the free concentration of one partner at which half of the binding sites on the other are occupied at equilibrium, for simple one-to-one binding. Higher therefore signals a looser complex. The term koff denotes the rate constant with which the complex falls apart. In general, kon refers to the rate constant with which the complex forms. As usually defined, the EC50 (read off the curve) is the concentration that produces a half-maximal response.
